Experimental data: US20220363766A1, “COMPOSITIONS AND METHODS FOR TREATING CYTOTOXIC T CELL RESISTANT TUMORS” (Dana-Farber Cancer Institute, Inc., priority 2019, published 2022)
Entries after “also recorded” stand apart in the source; their conditions may differ.

Tests used:
[1] = tested on: human NK cells; assay: Characterization of human NK cells in tumor-free NSG mice; format: in vivo; settings: 10 mg/kg, 24 hours later, blood
Experimental: (§1) Tumor-free NSG mice were inoculated intravenously with 2×10^6 human NK cells that were expanded in vitro as described above. At the same time, mice also received intraperitoneal injections of IL-2 (7.5×10^4) as well as panobinostat (10 mg/kg) or PBS as the solvent control. One day later, blood was collected via eye bleeding, and human NK cells were analyzed by flow cytometry.
as §1, with “(7.5×10^4, Peprotech)” for “(7.5×10^4)”

[2] = tested on: MICA/B; assay: MICA/B shedding assays in A375 melanoma cells (shed MICA ELISA, MICA/B surface levels by flow cytometry); format: cell-based; settings: control and B2M-KO A375 cells, 24 hours, vs isotype control
Experimental: 5×10^4 tumor cells were cultured for 24 hours in 96-wells plates (flat-bottom for adherent cells or U-bottom for suspension cells) in the presence of different concentrations of antibodies, IFNγ, and/or panobinostat (ApexBio, catalog number A8178), as indicated in each figure. Following a 24-hour culture period, plates were centrifuged for 5 minutes at 500× g, and supernatants were collected for analysis of shed MICA using the Human MICA ELISA Kit (Abcam, catalog number ab59569).
Adherent cells were detached with Versene (Gibco, catalog number 15040-066) to preserve the integrity of MICA/B proteins on the cell surface. Fc receptors were blocked using Human TruStain FcX™ (Biolegend, catalog number 422302), and cells were stained with PE or APC-conjugated anti-human MICA/B clone 6D4 (Biolegend, catalog numbers 320906 or 320908, respectively). […] Data were acquired using a BD Fortessa X20 or Beckman Coulter CytoFLEX LX, and analyses were performed using FlowJo V10 software.
5×10^4 tumor cells were cultured for 24 hours in 96-wells plates (flat-bottom for adherent cells or U-bottom for suspension cells) in the presence of different concentrations of antibodies, IFNγ, and/or panobinostat (ApexBio, catalog number A8178), as indicated in each figure. […]

[3] = tested on: A375 melanoma cells; assay: Long-term NK cell-mediated killing assay (image cytometry of GFP+ tumor cells); format: cell-based; settings: mAb 20 μg/ml pretreatment 24 hours, human NK cells, IL-2 300 U/ml, 72-hour period
Experimental: (§2) For long-term NK cell-mediated killing assays, GFP^+ control and B2M-KO A375 cells were pretreated for 24 hours with MICA/B or isotype control mAbs (20 μg/ml) in tissue culture media. Subsequently, tumor cells were detached with Versene, washed with PBS, and plated in black-wall 96-well plates (Corning™, catalog number 3603) at a density of 5×10^3 cells per well. Human NK cells were added 1-2 hours later at different effector to target ratios as indicated in the figures, and IL-2 (300 U/ml) was added to support NK cell survival. The number of GFP^+ tumor cells was tracked over time using a Celigo Image Cytometer (Nexcelom Bioscience, Lawrence, USA), as reported previously.^40
as §2, with “U/ml, BD Biosciences)” for “U/ml)”, “previously (33).” for “previously.^40”

Row | Molecule | impact on human NK cells transferred to NSG mice (circulating NK cells, CD16a or NKG2D positive NK cells) [1] | MICA shedding (shed MICA, sandwich ELISA) [2] | surface levels of MICA/B (flow cytometry) [2] | efficacy in NK cell-mediated killing, B2M-KO vs control A375 cells [3]
1 | Cc1[nH]c2ccccc2c1CCNCc1ccc(/C=C/C(=O)NO)cc1 [panobinostat] | did not negatively impact human NK cells; also recorded: did not inhibit reconstitution of NSG mice with human NK cells | – | – | –
2 | 7C6-hIgG1: MICA/B α3 domain specific mAb, clone 7C6 with human IgG1 Fc (antibody, V domains shown) VH: QIQLVQSGPELKKPGETVKVSCKASGYMFTNYAMNWVKQAPEKGLKWMGWINTHTGDPTYADDFKGRIAFSLETSASTAYLQINNLKNEDTATYFCVRTYGNYAMDYWGQGTSVTVSS VL: DIQMTQTTSSLSASLGDRVTISCSASQDISNYLNWYQQKPDGTVKLLIYDTSILHLGVPSRFSGSGSGTDYSLTISNLEPEDIATYYCQQYSKFPRTFGGGTTLEIK | – | inhibited MICA shedding | increased surface levels of MICA/B | substantially more effective against B2M-KO compared to control A375 melanoma cells
